# Key:
# [1] = target: NHERF3 (endogenous, Caco-2/bbe) (UniProt Q5T2W1); experiment: HA-NHE3 IP, LC-MS/MS spectral counts; details: reference: NHE3 wild type; sites S719
# ezrin = ezrin (UniProt P15311); experiment: HA-NHE3 IP, LC-MS/MS spectral counts; details: reference: NHE3 wild type; sites S719
substance,measurement,setting,value
NHE3 (from UniProt P26432) NHE3-S719A,other: normalized exclusive spectrum count,[1],weaker; reference 4
same,other: normalized exclusive spectrum count,ezrin,weaker; reference 8

# — publication PMC5491184
